{
  "source": "paper PMC3918043",
  "biological_target": "Sp1 (human, UniProt P08047 1-785)",
  "sequence (P08047 whole entry)": "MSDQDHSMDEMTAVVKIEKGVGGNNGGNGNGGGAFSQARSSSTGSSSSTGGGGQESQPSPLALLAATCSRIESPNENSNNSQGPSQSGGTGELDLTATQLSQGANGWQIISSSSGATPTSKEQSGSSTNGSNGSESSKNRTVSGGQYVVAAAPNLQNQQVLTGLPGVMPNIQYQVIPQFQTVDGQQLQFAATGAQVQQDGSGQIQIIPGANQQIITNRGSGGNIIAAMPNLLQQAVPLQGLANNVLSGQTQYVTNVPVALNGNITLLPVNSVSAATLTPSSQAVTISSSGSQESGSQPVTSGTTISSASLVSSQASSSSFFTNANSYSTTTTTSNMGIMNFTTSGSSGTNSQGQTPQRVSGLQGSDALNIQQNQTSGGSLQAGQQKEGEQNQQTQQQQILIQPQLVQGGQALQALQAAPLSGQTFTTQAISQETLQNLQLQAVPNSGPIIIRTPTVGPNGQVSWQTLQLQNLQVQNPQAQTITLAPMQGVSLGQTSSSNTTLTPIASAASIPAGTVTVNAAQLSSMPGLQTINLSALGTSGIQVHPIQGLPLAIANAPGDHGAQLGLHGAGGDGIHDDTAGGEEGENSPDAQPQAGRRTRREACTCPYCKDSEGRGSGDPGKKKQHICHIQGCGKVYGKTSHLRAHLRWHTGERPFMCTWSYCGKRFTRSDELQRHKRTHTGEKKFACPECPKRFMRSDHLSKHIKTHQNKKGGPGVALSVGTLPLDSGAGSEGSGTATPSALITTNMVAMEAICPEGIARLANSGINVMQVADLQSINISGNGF",
  "test": "EMSA",
  "data": [
    {"binder": "wtANF-Sp-s2 (dsDNA) DNA 1: TGAGGGTCTGGGGGAGGGAGGGTTACTGGAG DNA 2: CTCCAGTAACCCTCCCTCCCCCAGACCCTCA", "values": [
      {"measurement": "binding result", "result": "binds"}
    ]},
    {"binder": "wtANF-Sp-s4 (dsDNA) DNA 1: GACATCTAGGGTGGGGGTGGGCTGTCTGG DNA 2: CCAGACAGCCCACCCCCACCCTAGATGTC", "values": [
      {"measurement": "binding result", "result": "binds"}
    ]},
    {"binder": "wtANF-Sp-s1 (dsDNA) DNA 1: GTGACAGAATGGGGAGGGTTCCAGCTCT DNA 2: AGAGCTGGAACCCTCCCCATTCTGTCAC", "values": [
      {"measurement": "binding result", "result": "binds"}
    ]},
    {"binder": "wtANF-Sp-s3 (dsDNA) DNA 1: TATTGCCTCTCCTCCCGCCCTTATTTGGAG DNA 2: CTCCAAATAAGGGCGGGAGGAGAGGCAATA", "values": [
      {"measurement": "binding result", "result": "binds"}
    ]}
  ]
}
